Target: FZD/LRP
Assay: cell-based or functional assay

Sequence of Wnt3a, recombinantly produced ligand (P56704 19-352): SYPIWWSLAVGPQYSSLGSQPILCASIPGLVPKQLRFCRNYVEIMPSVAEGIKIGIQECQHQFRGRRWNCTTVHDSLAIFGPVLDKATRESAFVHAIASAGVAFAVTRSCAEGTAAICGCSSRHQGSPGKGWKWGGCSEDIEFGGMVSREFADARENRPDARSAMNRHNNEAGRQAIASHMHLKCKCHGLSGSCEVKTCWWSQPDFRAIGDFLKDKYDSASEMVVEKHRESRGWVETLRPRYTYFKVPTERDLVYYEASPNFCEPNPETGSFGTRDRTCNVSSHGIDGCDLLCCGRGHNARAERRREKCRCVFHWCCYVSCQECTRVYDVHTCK

In the case of Wnt3a, recombinantly produced ligand, the % Wnt Maxima Avg was 100%, the EC50 (nM), TOPFLASH assay was 6 nM and the Maximal Signal (% Wnt3a maxima) (% Wnt3a maxima) was 100. For the same substance, the Topflash EC50 (nM) Avg was 6 nM.

Reference: patent US20250270332A1
